Assay results as given in patent publication US20260139033A1 (PRANA THERAPIES, published 2026).
One block for each binder: values may come before it.

Key:
recombinant human TSLP [1] = target: T1, recombinant human TSLP (human, UniProt Q969D9 29-159); test: cell-based or functional assay
recombinant human TSLP [2] = target: T1, recombinant human TSLP; test: SPR; column 'SPR (Biophysical binding): TSLP (pM)'
Description: (§1) SPR studies were carried out on a Biacore 3000 instrument with a CM5 chip at 25° C. The running buffer comprised 25 mM Hepes, pH 7.5, 150 mM NaCl, 0.5 mg/ml BSA, 0.005% P20. Antibodies were captured via protein A using approximately a 1/50 dilution of each antibody in the running buffer and a 2-minute contact time at a 10 μl/min flow rate. Protein A was immobilized on a CM5 chip via standard amine coupling chemistry in 10 mM acetate pH 4.5. Approximately 800 RU of each antibody was captured. The surfaces were regenerated via a 10 mM glycine pH 1.5 between cycles. Between assays the chip was regenerated with a 2-minute pulse of 100 mM Phosphoric acid. Prior to setting up multicycle kinetic analysis analyte concentration was determined spectrophotometrically using an extinction coefficient of 72,880 M⁻¹ cm⁻¹ for IL4R and 18450 M⁻¹ cm⁻¹ for the TSLP proteins respectively. Analyte samples were prepared by diluting stocks into running buffer to a final concentration of 500 nM for the IL-4R and 25 nM for TSLP followed by serially diluting with a 2-fold series with an association time of 2.5 minutes at a 50 μl/min flow rate. Dissociation data was collected for a period of 1600 seconds. Raw data was analyzed using the Scrubber2 (Biologic Software, AU) program using a double referencing procedure where compound signal is corrected to a blank surface and a buffer injection over the captured antibody surface. Kinetic data was analyzed by fitting to a simple 1:1 binding model. […] The candidates are further described in Table 3.

recombinant human TSLP [3] = target: T1, recombinant human TSLP; test: SPR (Biacore 3000, CM5 chip, 25 C): complex captured via protein A, TSLP as analyte, 1:1 fit; column 'TSLP binding(pM)'
Description: as §1

[4] = target: IL-4R on human donor PBMC (B-cells) (human, UniProt P24394 26-825); test: cell-based or functional assay

- IC50, inhibition of TSLP responses (TARC secretion) in human PBMCs (recombinant human TSLP [1]): 7.8 nM
- Kd (recombinant human TSLP [2]): 0.0083 nM
- Kd (recombinant human TSLP [3]): 0.0083 nM
- IC50, CD23 upregulation on B cells of human PBMC in response to IL-4 (column 'Biological Assays: IL-4R (nM)') [4]: > 200 nM
B1: Candidate-26: Light chain C-terminal TRAP: Dupilumab-YTE_Linker-GS4_TSLP TRAP 2 [2 x TRAP 2] (bispecific antibody, human IgG4 S228P, kappa)
heavy: EVQLVESGGGLEQPGGSLRLSCAGSGFTFRDYAMTWVRQAPGKGLEWVSSISGSGGNTYYADSVKGRFTISRDNSKNTLYLQMNSLRAEDTAVYYCAKDRLSITIRPRYYGLDVWGQGTTVTVSSASTKGPSVFPLAPCSRSTSESTAALGCLVKDYFPEPVTVSWNSGALTSGVHTFPAVLQSSGLYSLSSVVTVPSSSLGTKTYTCNVDHKPSNTKVDKRVESKYGPPCPPCPAPEFLGGPSVFLFPPKPKDTLYITREPEVTCVVVDVSQEDPEVQFNWYVDGVEVHNAKTKPREEQFNSTYRVVSVLTVLHQDWLNGKEYKCKVSNKGLPSSIEKTISKAKGQPREPQVYTLPPSQEEMTKNQVSLTCLVKGFYPSDIAVEWESNGQPENNYKTTPPVLDSDGSFFLYSRLTVDKSRWQEGNVFSCSVMHEALHNHYTQKSLSLSLG
light: DIVMTQSPLSLPVTPGEPASISCRSSQSLLYSIGYNYLDWYLQKSGQSPQLLIYLGSNRASGVPDRFSGSGSGTDFTLKISRVEAEDVGFYYCMQALQTPYTFGQGTKLEIKRTVAAPSVFIFPPSDEQLKSGTASVVCLLNNFYPREAKVQWKVDNALQSGNSQESVTEQDSKDSTYSLSSTLTLSKADYEKHKVYACEVTHQGLSSPVTKSFNRGECGGGGSGGGGSGGGGSGGGGSESGYAQNGDLEDAELDDYSFSCYSQLEVNGSQHSLTCAFEDPDVNITNLEFEICGALVEVKCLNFRKLQEIYFIETKKFLLIGKSNICVKVGEKSLTCKKIDLTTIVKPEAPFDLSVVYREGANDFVVTFNTSHLQKKYVKVLMHDVAYRQEKDENKWTHVNLSSTKLTLLQRKLQPAAMYEIKVRSIPDHYFKGFWSEWSPSYYFRTPEINNSSGEMDGGSGGSGGSGGSGGSGGSGGSGGSGGSGGSGGSGGSGGSGGSGGSGGSGGSGGSGGSGGSGAAEGVQIQIIYFNLETVQVTWNASKYSRTNLTFHYRFNGDEAYDQCTNYLLQEGHTSGCLLDAEQRDDILYFSIRNGTHPVFTASRWMVYYLKPSSPKHVRFSWHQDAVTVTCSDLSYGDLLYEVQYRSPFDTEWQSKQENTCNVTIEGLDAEKCYSFWVRVKAMEDVYGPDTYPSDWSEVTCWQRGEIRDACAETPTPPKPKLSK
notes: The chains here are built from the component entries

- IC50, inhibition of TSLP responses (TARC secretion) in human PBMCs (recombinant human TSLP [1]): 2.37 nM
- Kd (recombinant human TSLP [2]): 0.0162 nM
- Kd (recombinant human TSLP [3]): 0.0162 nM
- IC50, CD23 upregulation on B cells of human PBMC in response to IL-4 (column 'Biological Assays: IL-4R (nM)') [4]: > 200 nM
B2: Candidate-42: Heavy and Light chain C-terminal TRAP: Dupilumab-YTE_Linker-GS4_TSLP TRAP 2 [4 x TRAP 2] (bispecific antibody, human IgG4 S228P, kappa)
heavy: EVQLVESGGGLEQPGGSLRLSCAGSGFTFRDYAMTWVRQAPGKGLEWVSSISGSGGNTYYADSVKGRFTISRDNSKNTLYLQMNSLRAEDTAVYYCAKDRLSITIRPRYYGLDVWGQGTTVTVSSASTKGPSVFPLAPCSRSTSESTAALGCLVKDYFPEPVTVSWNSGALTSGVHTFPAVLQSSGLYSLSSVVTVPSSSLGTKTYTCNVDHKPSNTKVDKRVESKYGPPCPPCPAPEFLGGPSVFLFPPKPKDTLYITREPEVTCVVVDVSQEDPEVQFNWYVDGVEVHNAKTKPREEQFNSTYRVVSVLTVLHQDWLNGKEYKCKVSNKGLPSSIEKTISKAKGQPREPQVYTLPPSQEEMTKNQVSLTCLVKGFYPSDIAVEWESNGQPENNYKTTPPVLDSDGSFFLYSRLTVDKSRWQEGNVFSCSVMHEALHNHYTQKSLSLSLGGGGGSGGGGSGGGGSGGGGSESGYAQNGDLEDAELDDYSFSCYSQLEVNGSQHSLTCAFEDPDVNITNLEFEICGALVEVKCLNFRKLQEIYFIETKKFLLIGKSNICVKVGEKSLTCKKIDLTTIVKPEAPFDLSVVYREGANDFVVTFNTSHLQKKYVKVLMHDVAYRQEKDENKWTHVNLSSTKLTLLQRKLQPAAMYEIKVRSIPDHYFKGFWSEWSPSYYFRTPEINNSSGEMDGGSGGSGGSGGSGGSGGSGGSGGSGGSGGSGGSGGSGGSGGSGGSGGSGGSGGSGGSGGSGAAEGVQIQIIYFNLETVQVTWNASKYSRTNLTFHYRFNGDEAYDQCTNYLLQEGHTSGCLLDAEQRDDILYFSIRNGTHPVFTASRWMVYYLKPSSPKHVRFSWHQDAVTVTCSDLSYGDLLYEVQYRSPFDTEWQSKQENTCNVTIEGLDAEKCYSFWVRVKAMEDVYGPDTYPSDWSEVTCWQRGEIRDACAETPTPPKPKLSK
light: B1 light
notes: as for B1
